Legend:
RNF123 = biological target: T1, RNF123 (human, UniProt Q5XPI4 2-1314, limits assumed); assay: IP/MS, LZTR1 R810W-FLAG, U87
T1 sequence (looked up): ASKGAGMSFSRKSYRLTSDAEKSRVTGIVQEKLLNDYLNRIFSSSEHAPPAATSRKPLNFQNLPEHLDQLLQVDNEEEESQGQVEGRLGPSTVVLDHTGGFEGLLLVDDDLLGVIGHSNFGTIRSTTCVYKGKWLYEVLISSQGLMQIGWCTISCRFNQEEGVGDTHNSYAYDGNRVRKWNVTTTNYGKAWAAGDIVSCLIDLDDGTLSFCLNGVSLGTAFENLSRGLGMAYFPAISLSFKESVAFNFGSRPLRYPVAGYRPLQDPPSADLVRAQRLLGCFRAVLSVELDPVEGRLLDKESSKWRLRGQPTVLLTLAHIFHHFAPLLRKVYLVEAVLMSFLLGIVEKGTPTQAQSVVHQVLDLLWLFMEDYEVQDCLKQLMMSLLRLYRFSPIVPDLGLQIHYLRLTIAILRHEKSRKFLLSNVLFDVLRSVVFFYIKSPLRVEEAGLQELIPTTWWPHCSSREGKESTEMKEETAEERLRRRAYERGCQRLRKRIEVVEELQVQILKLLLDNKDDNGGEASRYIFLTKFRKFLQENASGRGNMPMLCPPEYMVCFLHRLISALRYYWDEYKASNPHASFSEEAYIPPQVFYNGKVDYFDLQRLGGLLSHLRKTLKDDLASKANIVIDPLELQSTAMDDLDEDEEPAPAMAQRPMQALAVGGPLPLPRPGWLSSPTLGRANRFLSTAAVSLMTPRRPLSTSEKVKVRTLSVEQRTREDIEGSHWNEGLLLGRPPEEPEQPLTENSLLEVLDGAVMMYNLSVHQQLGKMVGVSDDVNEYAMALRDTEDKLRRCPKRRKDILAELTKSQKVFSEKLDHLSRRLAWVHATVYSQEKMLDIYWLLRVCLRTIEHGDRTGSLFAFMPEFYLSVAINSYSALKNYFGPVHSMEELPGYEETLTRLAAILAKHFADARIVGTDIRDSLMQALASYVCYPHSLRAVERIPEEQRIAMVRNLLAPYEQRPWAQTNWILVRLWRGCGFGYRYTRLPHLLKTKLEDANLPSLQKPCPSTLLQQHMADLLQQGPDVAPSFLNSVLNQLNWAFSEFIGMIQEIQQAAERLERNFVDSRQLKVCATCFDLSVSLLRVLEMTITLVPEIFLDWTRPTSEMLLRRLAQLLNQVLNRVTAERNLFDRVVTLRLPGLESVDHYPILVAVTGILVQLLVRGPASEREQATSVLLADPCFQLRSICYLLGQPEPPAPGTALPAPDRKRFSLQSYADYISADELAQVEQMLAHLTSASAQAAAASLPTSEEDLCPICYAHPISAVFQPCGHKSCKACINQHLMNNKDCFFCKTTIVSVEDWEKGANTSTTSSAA
Method in brief: (§1)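 Gel slices were reduced with 5 mM DTT, alkylated with 11 mM IAA and digested overnight at 37° C. with trypsin. Peptides were analysed on an Orbitrap Fusion Tribrid by LC-MS/MS.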

SEC24D = biological target: T2, SEC24D (human, UniProt O94855 1-1032, limits assumed); assay: IP/MS, LZTR1 R810W-FLAG, U87
T2 sequence (looked up): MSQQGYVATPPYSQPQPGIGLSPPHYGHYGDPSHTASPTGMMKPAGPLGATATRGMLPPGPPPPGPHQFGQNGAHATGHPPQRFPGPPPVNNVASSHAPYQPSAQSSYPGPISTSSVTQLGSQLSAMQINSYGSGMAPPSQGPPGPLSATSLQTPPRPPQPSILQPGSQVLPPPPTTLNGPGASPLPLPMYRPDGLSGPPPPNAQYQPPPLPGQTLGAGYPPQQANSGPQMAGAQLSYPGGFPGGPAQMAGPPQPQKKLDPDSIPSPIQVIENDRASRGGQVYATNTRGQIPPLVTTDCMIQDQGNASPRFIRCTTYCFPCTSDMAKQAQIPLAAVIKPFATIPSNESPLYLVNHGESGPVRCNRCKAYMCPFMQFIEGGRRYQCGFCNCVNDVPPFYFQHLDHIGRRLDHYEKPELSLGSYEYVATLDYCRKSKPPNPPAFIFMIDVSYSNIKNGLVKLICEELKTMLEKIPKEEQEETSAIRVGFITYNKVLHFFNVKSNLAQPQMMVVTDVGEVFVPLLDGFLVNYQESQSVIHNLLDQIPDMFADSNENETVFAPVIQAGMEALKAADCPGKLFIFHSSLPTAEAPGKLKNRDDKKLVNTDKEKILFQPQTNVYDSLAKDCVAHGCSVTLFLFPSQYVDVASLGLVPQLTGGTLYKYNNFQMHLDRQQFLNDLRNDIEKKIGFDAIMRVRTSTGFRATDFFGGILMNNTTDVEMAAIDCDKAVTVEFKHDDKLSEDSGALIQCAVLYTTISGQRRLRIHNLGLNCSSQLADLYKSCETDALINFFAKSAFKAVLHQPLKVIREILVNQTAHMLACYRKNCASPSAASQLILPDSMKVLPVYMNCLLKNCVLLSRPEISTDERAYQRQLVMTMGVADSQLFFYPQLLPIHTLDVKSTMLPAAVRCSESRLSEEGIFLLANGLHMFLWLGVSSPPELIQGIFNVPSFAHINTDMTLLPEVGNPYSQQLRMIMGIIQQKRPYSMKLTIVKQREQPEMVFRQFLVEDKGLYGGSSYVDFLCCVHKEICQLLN
Method in brief: as §1

B1: LZTR1 R810W-FLAG (other, human, UniProt Q8N653 1-840, looked up)
chain: MAGPGSTGGQIGAAALAGGARSKVAPSVDFDHSCSDSVEYLTLNFGPFETVHRWRRLPPCDEFVGARRSKHTVVAYKDAIYVFGGDNGKTMLNDLLRFDVKDCSWCRAFTTGTPPAPRYHHSAVVYGSSMFVFGGYTGDIYSNSNLKNKNDLFEYKFATGQWTEWKIEGRLPVARSAHGATVYSDKLWIFAGYDGNARLNDMWTIGLQDRELTCWEEVAQSGEIPPSCCNFPVAVCRDKMFVFSGQSGAKITNNLFQFEFKDKTWTRIPTEHLLRGSPPPPQRRYGHTMVAFDRHLYVFGGAADNTLPNELHCYDVDFQTWEVVQPSSDSEVGGAEVPERACASEEVPTLTYEERVGFKKSRDVFGLDFGTTSAKQPTQPASELPSGRLFHAAAVISDAMYIFGGTVDNNIRSGEMYRFQFSCYPKCTLHEDYGRLWESRQFCDVEFVLGEKEECVQGHVAIVTARSRWLRRKITQARERLAQKLEQEAAPVPREAPGVAAGGARPPLLHVAIREAEARPFEVLMQFLYTDKIKYPRKGHVEDVLLIMDVYKLALSFQLCRLEQLCRQYIEASVDLQNVLVVCESAARLQLSQLKEHCLNFVVKESHFNQVIMMKEFERLSSPLIVEIVRRKQQPPPRTPLDQPVDIGTSLIQDMKAYLEGAGAEFCDITLLLDGHPRPAHKAILAARSSYFEAMFRSFMPEDGQVNISIGEMVPSRQAFESMLRYIYYGEVNMPPEDSLYLFAAPYYYGFYNNRLQAYCKQNLEMNVTVQNVLQILEAADKTQALDMKRHCLHIIVHQFTKVSKLPTLWSLSQQLLLDIIDSLASHISDKQCAELGADI
notes: Stably expressed in U87 cells by lentivirus; also called LZTR1-FLAG-R810W; LZTR1 RW; not shown: FLAG tag
Question: Does B1 bind (RNF123)?
Answer: Result: binds

Question: Does B1 bind (SEC24D)?
Answer: Result: binds

Reference: patent US20250262210A1 (TRUSTEES OF COLUMBIA UNIVERSITY IN THE CITY OF NEW YORK, published 2025)
